assay: yeast display, Sf9 membrane polyspecificity reagent, FACS + sequencing; frameworks hold sequencing errors
Outline: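 A nanobody's polyreactivity label depends on the gate it was sorted from. Yeast display cells were stained with 10% biotinylated, detergent-solubilized Sf9 membrane reagent for 1 hour at 4 °C, enriched on streptavidin microbeads and sorted by FACS. The low and high (top ~1%) gates were set on anti-HA fluorescence for expression and streptavidin fluorescence for reagent binding.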

Row | Sequence | polyreactivity (PSR sort gate)
1 | QVQLVESGGGLVQAGGSLRLSCAASGFTFGGYAMGWYRQAPGKERELVAAINSIGGTTYYADSVKGRFTISRDNAKNTVYLQMNRLKPEDTAVYYCAAGFYGYARHTWYNYWGQGTQVTVSS | high polyreactivity
2 | QVQLVESGGGLVQAGGSLRLSCAASGFTFGGYAMGWYRQAPGKEREMVAGISGSGGRTYYADSVKGRFTISRDNAKNTVYLQMNSLKPEDTAVYYCGADRASPYLEYYWGLGTQVTVSS | low polyreactivity
3 | QVQLVESGGGLVQAGGSLRLSCAASGFTFGHNDMGWYRQAPGKERELVASITQSGGSTYYADSVKGRFTISRDNAKNTVYLQMNSLKPEDTAVYYCAKDLYQSAFITKYDYWGQGTQVTVSS | low polyreactivity
4 | QVQLVESGGGLVQAGGSLRLSCAASGFTFGHYARGWSRQAPGKERELVAAISRSGGTTSYADSVKGRFTISRDNAKNTVYLQMNSLKTEDTAVYYCNKDYIWARYGGGRDYWGQGTQVTVSS | low polyreactivity
5 | QVQLVESGGGLVQAGGSLRLSCAASGFTFGINAMGWYRQAPGKERELVAAINQSGDRTYYADSVKGRFTISRDNAKNTVYLQMNSLKPEDTAVYYCAALSTYRTWYGYWGQGTQVTVSS | high polyreactivity
6 | QVQLVESGGGLVQAGGSLRLSCAASGFTFGIYAMGWYRPATVKERELVAAISSSGGSTYYADSVKGRFTISRDNAKHTVYLQMNSLKPEDTAVYYCNAGALYRVYPYRGKLAYITYDSWGQGTQVTVSS | high polyreactivity
7 | QVQLVESGGGLVQAGGSLRLSCAASGFTFGIYAMGWYRQAPGKERELVADISSGGSTYYADSVKGRFTISRDNAKNTVYLQMNSLKPEDTAVYYCARDSWWYHHYDYWGQGTQVTVSS | low polyreactivity
8 | QVQLVESGGGLVQAGGSLRLSCAASGFTFGIYDMGWYRQAPGKERELVAAISWRGVSTYYADSVKGRFRISRDNAKNTVYLQMNSLKPEDTAVYYCNAVDTDGDLYPINYPYDYGYDYWGQGTQVTVSS | low polyreactivity
9 | QVQLVESGGGLVQAGGSLRLSCAASGFTFGKYAMGWYRQAPGKERELVAAITWSGGRTYYADSVKGRFTISRDNAKNTVYLQMNSLKPEDTAVYYCNKVYLYSSLARPYDYWGQGTQVTVSS | high polyreactivity
10 | QVQLVESGGGLVQAGGSLRLSCAASGFTFGNNAMGWYRQAPGKERELVAAISKRGSSTYYADSVKGRFTISRDNAKNTVYLQMNSLKPEDTAVYYCAAPRSRSRTSRFDYWGQGTQVTVSS | high polyreactivity
11 | QVQLVESGGGLVQAGGSLRLSCAASGFTFGNNGMGWYRQAPGKERELVASISGGGDSTYYADSVKGRFTISRDNAKYTVYLQMNSLKREDTAVYYCAADYRQEPGYTGYYYWGQGTQVTVSS | low polyreactivity
12 | QVQLVESGGGLVQAGGSLRLSCAASGFTFGQYVMGWYRQAPGKERELVAAISFSGGSTYYADSVKGRFTISRDNAKNTVSVQMTSLKPEDTAVYYCAADVNVLYLLRFSHRSNYGYWGQGTQVTVSS | high polyreactivity
13 | QVQLVESGGGLVQAGGSLRLSCAASGFTFGRKALGWYRQAPGKERELVAAISSSEHFYVRRLLKGRFTISRENAKNTVYLQMNSLKPEDTAVYYCATDNSGEVEYWGQGTQVTVSS | high polyreactivity
14 | QVQLVESGGGLVQAGGSLRLSCAASGFTFGRNAMGWYRQAPGKERELVAAISRGGSTYYADSVKGRFTISRDNAKNTVYLQMNSLKPEDTAVYYCAAETFLKPQYFKKFGYWGQGTQVTVSS | high polyreactivity
15 | QVQLVESGGGLVQAGGSLRLSCAASGFTFGRNTMGWYRQAPGKERELVAAIDSGGNTYADSVKGRFTISRDNAKNTVYLQMNSLKPEDTAVYYCAVDVGEFSSYGYWGQGTQVTVSS | low polyreactivity
16 | QVQLVESGGGLVQAGGSLRLSCAASGFTFGRNVIGWYRQAPGKERELVAAISLSGGSTYYADSVKGRFTISRDNAKNTVYLQMNSLKPEDTAVYYCAAGYITWYDYWGQGTQVTVSS | high polyreactivity
17 | QVQLVESGGGLVQAGGSLRLSCAASGFTFGRYAMGWYRQAPGKEREFVAAITWSGGGTYYADSVKGRFTISRDNAKYTVYLQMYSLKPEDTAVYYCAADRRAYGGGYWGQGTQVTVSS | high polyreactivity
18 | QVQLVESGGGLVQAGGSLRLSCAASGFTFGRYAMGWYRQAPGKERELVAAISFSGGRTYYADSVKGRFTISRDNAKNTVYLQMNSLKPEDTAVYYCAARRRQEHVGRSSYARYDYWGQGTQVTVSS | high polyreactivity
19 | QVQLVESGGGLVQAGGSLRLSCAASGFTFGRYAMGWYRQAPGKERELVASISRSGGSTNYADSVKGRFTISRDNAKNTVYLQMNSLKPEDTAVYYCAAVKGRRYDYWGQGTQVTVSS | high polyreactivity
20 | QVQLVESGGGLVQAGGSLRLSCAASGFTFGRYAMGWYRQAPGKERELVATISRSGGRTYYADSVKGRFTISRDIAKKTVYLQMNSLKPEDTAVYYCAADTRNYPRYDYWGQGTQVTVSS | high polyreactivity
21 | QVQLVESGGGLVQAGGSLRLSCAASGFTFGRYAMGWYRQAPGKERELVATITRTGSTNYADSVKGRFTISRDNAKNTVYLQMNSLKPEDTAVYYCNAGPDRRVSYYRLLDHWGQGTQVTASS | low polyreactivity
22 | QVQLVESGGGLVQAGGSLRLSCAASGFTFGRYAMGWYRQAPGKERELVATITRTGSTNYADSVKGRFTISRDNAKNTVYLQMNSLKPEDTAVYYCNAGPDRRVSYYRLLDHWGQGTQVTVSS | low polyreactivity

Row | Sequence | polyreactivity (PSR sort gate)
23 | QVQLVESGGGLVQAGGSLRLSCAASGFTFGSNAMGWYRQAPGKEREFVAAISGSGDRTYYADSVKGRFTISRDNAKNTVYLQMNSLKPEDTAVYYCATSVRQNYFYSYDDWGQGTQVTVSS | high polyreactivity
24 | QVQLVESGGGLVQAGGSLRLSCAASGFTFGSNAMGWYRQAPGKEREFVATITKSGGRTYYADSVKGRFTISRDNAKNTVYFQMNSLKPEDTAVYYCAVALSYRTYRKDDYWGQGTQVTVSS | high polyreactivity
25 | QVQLVESGGGLVQAGGSLRLSCAASGFTFGSNAMGWYRQAPGKERELVAAINYSGVRTYYADSVKGRFTISRDNAKNTVYLQMNSLKPEDTAVSYCAKKRSKPISFDYWGQGTQVTVSS | high polyreactivity
26 | QVQLVESGGGLVQAGGSLRLSCAASGFTFGSNAMGWYRQAPGKERELVAAIRSRGGSTYYADSVKGRFTISRDNAKNTVYLQMNSLKPEDTAVYYCAADFIGRDYDYWGQGTQVTVSS | high polyreactivity
27 | QVQLVESGGGLVQAGGSLRLSCAASGFTFGSNAMGWYRQAPGKERELVAAISSTGSTYYADSVKGRFTISRDNAKNTVYLQMNSLKPEDTAVYYCNADSDTPRYDYWGQGTQVTVSS | low polyreactivity
28 | QVQLVESGGGLVQAGGSLRLSCAASGFTFGSNTMGWYRQAPGKERELVAVITWSGGSTYYADSVKGRFTISRDYAKNTVYLQMNSLKPEDTAVYSCAAEATSPLTWFDYWGQGTQVTVSS | low polyreactivity
29 | QVQLVESGGGLVQAGGSLRLSCAASGFTFGSYAMGWYRPAPGKERELVAGISRGGSTNYADSVKGRFTISRDNAKNTVYLQMNSLKPEDTAVYYCAAYVIGPDQFIYDYWGQGTQVTVSS | low polyreactivity
30 | QVQLVESGGGLVQAGGSLRLSCAASGFTFGSYAMGWYRQAPGKERELVAAISGRGGSTYYADSVKGRFTISRDNAKNTVYLQMNSLKPEDTAVYYCATDYSRTFDYWGQGTQVTVSS | high polyreactivity
31 | QVQLVESGGGLVQAGGSLRLSCAASGFTFGSYAMGWYRQAPGKERELVAAITRSGGGTYYADSVKGRFTISRDNAKNTVYLQMNSLKPEDTSVYYCAAGALQRGVYGFGYWGQGTQVTVSS | high polyreactivity
32 | QVQLVESGGGLVQAGGSLRLSCAASGFTFGSYAMGWYRQAPGKERELVAGISRGGSTNYADSVKGRFTISRDNAKNTVYLQMNSLKPEDTAVYYCAARAVYVADTGATPAGYDYWGQGTQVTVSS | low polyreactivity
33 | QVQLVESGGGLVQAGGSLRLSCAASGFTFGTYAMGCYRPAPGKERELVAAISKRGGSTYYADSVKGRFTISRDNAKNTVYLQMNSLKPEDTAVYYCAATRPYSHRDYFYWGQGTQVSVSS | high polyreactivity
34 | QVQLVESGGGLVQAGGSLRLSCAASGFTFGTYAMGWYRQAPGKERELVARISRRSGSTYYADSVKGRFTISRDKAKNTVYLQMNSLKPEDTAVYYCAADSRAKRYYWGQGTQVTVSS | high polyreactivity
35 | QVQLVESGGGLVQAGGSLRLSCAASGFTFGVYAMGWYRQAPGKERELVAAITATGGSTYYADSVKGRFTISRDNAKNTVYLQMNSLKPADTEVYYCAKPDYYRMGYWVQGTQVTVSS | low polyreactivity
36 | QVQLVESGGGLVQAGGSLRLSCAASGFTFGWYAMGWYRQAPGKERELVAAISRRGGTTYYADSVKGRFTISRDNAKNTVYLQMNSLKPEDTAVYYCAATSYTYVLSPYRGDYWGQGTQVTVSS | high polyreactivity
37 | QVQLVESGGGLVQAGGSLRLSCAASGFTFGWYAMGWYRQAPGKERELVASISWSGSTTYYADSVKGRFTISRDNAKNTVYLQMNSLKPEDTAVYYCNARRSYVRNDFDYWGQGTQVTVSS | high polyreactivity
38 | QVQLVESGGGLVQAGGSLRLSCAASGFTFGWYAMGWYRQAPGKERELVATISWSGSSTYYADSVKGRFTISRDNAKNTVYLQMNSLKPEDTAVYYCNAVYGRFVVLRYDYWGQGTQVTVSS | high polyreactivity
39 | QVQLVESGGGLVQAGGSLRLSCAASGFTFGWYDMGWYRQAPGKERELVASISWSGSSTYYADSVKGRFTISRDNAKNTVYLQMNSLKPEDTAVYYCATPYWRRYDYWGQGTQVTVSS | high polyreactivity
40 | QVQLVESGGGLVQAGGSLRLSCAASGFTFGYYAMGWYRQAPGKEREFVARISWSGDSTYYADSVKGRFTISRDNAKNTVYLQMNSLKPEDTSVYYCAAVVQTSWGKWNDYWGPGTQVTVSS | high polyreactivity
41 | QVQLVESGGGLVQAGGSLRLSCAASGFTFGYYAMGWYRQAPGKERELVAAIRSSGGSTYYADSVKGRFTISRDNAKNTVYLQMNSLKPEDTAVYYCAVLYGYRSSSRYGYDSWGQGTQVTVSS | high polyreactivity
42 | QVQLVESGGGLVQAGGSLRLSCAASGFTFGYYAMGWYRQAPGKERELVAAISKRGGSTYYADSVKGRFTISRDNAKNTVYLQMNSLKPEDTAVYYCATRYTGYPFYGYDYWGQGTQVTVSS | high polyreactivity
43 | QVQLVESGGGLVQAGGSLRLSCAASGFTFGYYAMGWYRQAPGKERELVAAITGSGGSTYYADSVKGRFTISRDNAKNTVYLQMNSLKPEDTAVYYCAADKAVYRGSPKNRSPYYYWGQGTQVTVSS | high polyreactivity
